{"source": "paper PMC2785583", "about": "(The Journal of Biological Chemistry, 2009)", "key": {"[1]": {"biological_target": "Protein FAF (F. magna adhesion factor), recombinant, amino acids 28-616 (Finegoldia magna)", "assay": "SPR"}, "SDS-PAGE": {"biological_target": "the molecule itself", "assay": "SDS-PAGE"}}, "data": [{"binder": "Recombinant human MIG/CXCL9 (monokine induced by gamma-interferon) (ligand, UniProt Q07325 23-125, looked up) TPVVRKGRCSCISTNQGTIHLQSLKDLKQFAPSPSCEKIEIIATLKNGVQTCLNPDSADVKELIKKWEKQVSQKKKQKNGKKHQKKKVLKVRKSQRSRQKKTT", "values": [{"measurement": "Kd", "setting": "[1]", "result": 4.9, "unit": "nM"}, {"measurement": "binding result", "setting": "SDS-PAGE", "result": "binds"}]}]}
